Article PMC5066087, “In Vitro Bioconversion of Pyruvate to n-Butanol with Minimized Cofactor Utilization” (Frontiers in Bioengineering and Biotechnology, 2016)

Experiments:
purified protein [1] = substrate: CC=O; experiment: purified protein; format: biochemical, Geobacillus stearothermophilus; conditions: 0.3 mM NADH, 2.5 mM MgSO4, 100 mM HEPES pH 7, 50°C, acetaldehyde 0.01–0.14 mM
purified protein [2] = substrate: CCCC=O; experiment: purified protein; format: biochemical, Geobacillus stearothermophilus; conditions: 0.3 mM NADH, 2.5 mM MgSO4, 100 mM HEPES pH 7, 50°C, butyraldehyde 0.8–3 mM

B1: ADH (ADH-HT) (Geobacillus stearothermophilus) (protein)
chain: MKAAVVEQFKEPLKIKEVEKPTISYGEVLVRIKACGVCHTDLHAAHGDWPVKPKLPLIPGHEGVGIVEEVGPGVTHLKVGDRVGIPWLYSACGHCDYCLSGQETLCEHQKNAGYSVDGGYAEYCRAAADYVVKIPDNLSFEEAAPIFCAGVTTYKALKVTGAKPGEWVAIYGIGGLGHVAVQYAKAMGLNVVAVDIGDEKLELAKELGADLVVNPLKEDAAKFMKEKVGGVHAAVVTAVSKPAFQSAYNSIRRGGACVLVGLPPEEMPIPIFDTVLNGIKIIGSIVGTRKDLQEALQFAAEGKVKTIIEVQPLEKINEVFDRMLKGQINGRVVLTLEDK
notes: codon-optimised synthetic gene in pET-22b (NdeI/XhoI), C-terminal His-tag, expressed in E. coli, IMAC purified
Km (purified protein [1]): 65 ± 5 µM | kcat (purified protein [1]): 141.44 ± 14.52 s⁻¹ | Km (purified protein [2]): 1430 ± 160 µM | kcat (purified protein [2]): 49.16 ± 3.8 s⁻¹
